Measurements published in article PMC2814163 (2010).
Each block holds one binder with its values, some of them ahead of it.

Molecular target: T1, Glu-plasminogen (Homo sapiens, UniProt P00747)
T1 chain: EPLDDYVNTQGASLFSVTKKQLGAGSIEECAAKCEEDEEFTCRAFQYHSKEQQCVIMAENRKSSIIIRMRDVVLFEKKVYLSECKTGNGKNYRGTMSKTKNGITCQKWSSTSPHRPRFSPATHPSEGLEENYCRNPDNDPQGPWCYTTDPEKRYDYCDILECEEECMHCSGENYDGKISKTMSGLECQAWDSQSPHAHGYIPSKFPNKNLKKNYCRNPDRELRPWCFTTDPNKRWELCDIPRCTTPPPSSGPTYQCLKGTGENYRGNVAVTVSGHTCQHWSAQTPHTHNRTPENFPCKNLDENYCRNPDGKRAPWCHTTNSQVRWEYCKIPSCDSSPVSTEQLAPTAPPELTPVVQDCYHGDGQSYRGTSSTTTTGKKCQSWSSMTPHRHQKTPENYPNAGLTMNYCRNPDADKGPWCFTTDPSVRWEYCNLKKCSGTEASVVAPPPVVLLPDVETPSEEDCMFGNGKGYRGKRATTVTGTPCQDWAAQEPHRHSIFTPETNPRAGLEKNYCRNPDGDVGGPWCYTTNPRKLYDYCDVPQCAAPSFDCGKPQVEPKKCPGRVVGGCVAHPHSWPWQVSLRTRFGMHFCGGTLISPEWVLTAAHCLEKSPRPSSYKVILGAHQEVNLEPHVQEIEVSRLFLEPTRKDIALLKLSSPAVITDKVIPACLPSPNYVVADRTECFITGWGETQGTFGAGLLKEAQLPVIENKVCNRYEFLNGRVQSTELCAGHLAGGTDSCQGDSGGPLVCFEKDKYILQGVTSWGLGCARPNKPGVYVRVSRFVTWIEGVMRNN
Assay: SPR

Kd: 5 nM
B1: CI-MPR Dom1-2 (protein)
chain: AAGTQGAEFPELCSYTWEAVDTKNNMLYKINICGNMGVAQCGPSSAVCMHDLKTDSFHSVGDSLLKTASRSLLEFNTTVNCKQQNHKIQSSITFLCGKTLGTPEFVTATDCVHYFEWRTTAACKKNIFKANKEVPCYAFDRELKKHDLNPLIKTSGAYLVDDSDPDTSLFINVCRDIEVLRASSPQVRVCPTGAAACLVRGDRAFDVGRPQEGLKLVSNDRLVLSYVKEGAGQPDFCDGHSPAVTITFVCPSERREGTIPKLTAKSNCRFEIEWVTEYACHR

Kd: 3 nM
B2: CI-MPR Dom1-3 (protein)
chain: AAGTQGAEFPELCSYTWEAVDTKNNMLYKINICGNMGVAQCGPSSAVCMHDLKTDSFHSVGDSLLKTASRSLLEFNTTVNCKQQNHKIQSSITFLCGKTLGTPEFVTATDCVHYFEWRTTAACKKNIFKANKEVPCYAFDRELKKHDLNPLIKTSGAYLVDDSDPDTSLFINVCRDIEVLRASSPQVRVCPTGAAACLVRGDRAFDVGRPQEGLKLVSNDRLVLSYVKEGAGQPDFCDGHSPAVTITFVCPSERREGTIPKLTAKSNCRFEIEWVTEYACHRDYLESRSCSLSSAQHDVAVDLQPLSRVEASDSLFYTSEADEYTYYLSICGGSQAPICNKKDAAVCQVKKADSTQVKVAGRPQNLTLRYSDGDLTLIYFGGEECSSGFQRMSVINFECNQTAGNNGRGAPVFTGEVDCTYFFTWDTKYACVH
